Results on three substances are retold here after US20120184457A1, “Modulation of miRNA Activity” (Cambridge Enterprise Limited, priority 2009, published 2012).

The target in data set [1] is T1, LIN-28 (GST-LIN-28) (Caenorhabditis elegans) (UniProt P92186).
T1 sequence: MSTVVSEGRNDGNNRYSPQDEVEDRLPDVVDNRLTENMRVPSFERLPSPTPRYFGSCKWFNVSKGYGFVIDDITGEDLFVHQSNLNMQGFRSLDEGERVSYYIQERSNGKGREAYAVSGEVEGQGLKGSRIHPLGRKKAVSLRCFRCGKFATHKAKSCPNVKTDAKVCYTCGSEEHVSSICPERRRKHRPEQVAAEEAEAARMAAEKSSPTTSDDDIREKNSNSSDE
Briefly: EMSA. Particulars: estimated; 50 mM Tris pH 7.6, 100 mM NaCl, 5 mM MgOAc2, tRNA competitor, room temperature.

The subject of data set [2] is recombinant GST-LIN-28 (C. elegans LIN-28 fused to glutathione-S-transferase) [GST: P08515].
The target of the next data set is T2, ZCCHC11 (Homo sapiens, UniProt Q5TAX3).
T2 construct: expressed in transfected cells; host or cells: HEK293T
Briefly: Screening assay for ZCCHC poly(U) polymerase inhibitors: in vitro uridylation of 5'-end-labeled pre-let-7. The data set is classed as biochemical. Here is the method:
HEK293T cells were transfected with pHA-FLAG-ZCCHC11. After 48 hrs cells were lysed. 50 μl of the supernatant was incubated with 5 μl of pre-washed anti-FLAG antibody conjugated to agarose beads (Sigma) and incubated for 2 hrs at 4° C. Agarose-beads were washed twice with lysis buffer and twice with buffer D. For in vitro uridylation, agarose beads were incubated in a 30 μl reaction containing 3.2 mM of MgCl2, 1 mM of DTT and 0.25 mM of rUTP, 5 mM of test compound and 5′-end-labeled pre-let-7 of 1×10^4-1×10^5 cpm, for 20 min at 37° C. RNA was purified by Trizol extraction and isopropanol precipitated. Reactions were analysed in a 12% urea polyacrylamide gel.

Sequence of recombinant GST-LIN-28 (C. elegans LIN-28 fused to glutathione-S-transferase) [GST: P08515] (P08515 whole entry, looked up, the tested form may be a part): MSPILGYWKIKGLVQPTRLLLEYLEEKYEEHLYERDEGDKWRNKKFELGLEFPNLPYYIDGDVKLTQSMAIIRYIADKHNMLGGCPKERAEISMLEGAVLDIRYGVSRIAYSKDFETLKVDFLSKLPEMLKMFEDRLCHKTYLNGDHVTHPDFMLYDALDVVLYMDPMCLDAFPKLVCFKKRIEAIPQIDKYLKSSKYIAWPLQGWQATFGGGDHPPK
T2 sequence (Q5TAX3 whole entry): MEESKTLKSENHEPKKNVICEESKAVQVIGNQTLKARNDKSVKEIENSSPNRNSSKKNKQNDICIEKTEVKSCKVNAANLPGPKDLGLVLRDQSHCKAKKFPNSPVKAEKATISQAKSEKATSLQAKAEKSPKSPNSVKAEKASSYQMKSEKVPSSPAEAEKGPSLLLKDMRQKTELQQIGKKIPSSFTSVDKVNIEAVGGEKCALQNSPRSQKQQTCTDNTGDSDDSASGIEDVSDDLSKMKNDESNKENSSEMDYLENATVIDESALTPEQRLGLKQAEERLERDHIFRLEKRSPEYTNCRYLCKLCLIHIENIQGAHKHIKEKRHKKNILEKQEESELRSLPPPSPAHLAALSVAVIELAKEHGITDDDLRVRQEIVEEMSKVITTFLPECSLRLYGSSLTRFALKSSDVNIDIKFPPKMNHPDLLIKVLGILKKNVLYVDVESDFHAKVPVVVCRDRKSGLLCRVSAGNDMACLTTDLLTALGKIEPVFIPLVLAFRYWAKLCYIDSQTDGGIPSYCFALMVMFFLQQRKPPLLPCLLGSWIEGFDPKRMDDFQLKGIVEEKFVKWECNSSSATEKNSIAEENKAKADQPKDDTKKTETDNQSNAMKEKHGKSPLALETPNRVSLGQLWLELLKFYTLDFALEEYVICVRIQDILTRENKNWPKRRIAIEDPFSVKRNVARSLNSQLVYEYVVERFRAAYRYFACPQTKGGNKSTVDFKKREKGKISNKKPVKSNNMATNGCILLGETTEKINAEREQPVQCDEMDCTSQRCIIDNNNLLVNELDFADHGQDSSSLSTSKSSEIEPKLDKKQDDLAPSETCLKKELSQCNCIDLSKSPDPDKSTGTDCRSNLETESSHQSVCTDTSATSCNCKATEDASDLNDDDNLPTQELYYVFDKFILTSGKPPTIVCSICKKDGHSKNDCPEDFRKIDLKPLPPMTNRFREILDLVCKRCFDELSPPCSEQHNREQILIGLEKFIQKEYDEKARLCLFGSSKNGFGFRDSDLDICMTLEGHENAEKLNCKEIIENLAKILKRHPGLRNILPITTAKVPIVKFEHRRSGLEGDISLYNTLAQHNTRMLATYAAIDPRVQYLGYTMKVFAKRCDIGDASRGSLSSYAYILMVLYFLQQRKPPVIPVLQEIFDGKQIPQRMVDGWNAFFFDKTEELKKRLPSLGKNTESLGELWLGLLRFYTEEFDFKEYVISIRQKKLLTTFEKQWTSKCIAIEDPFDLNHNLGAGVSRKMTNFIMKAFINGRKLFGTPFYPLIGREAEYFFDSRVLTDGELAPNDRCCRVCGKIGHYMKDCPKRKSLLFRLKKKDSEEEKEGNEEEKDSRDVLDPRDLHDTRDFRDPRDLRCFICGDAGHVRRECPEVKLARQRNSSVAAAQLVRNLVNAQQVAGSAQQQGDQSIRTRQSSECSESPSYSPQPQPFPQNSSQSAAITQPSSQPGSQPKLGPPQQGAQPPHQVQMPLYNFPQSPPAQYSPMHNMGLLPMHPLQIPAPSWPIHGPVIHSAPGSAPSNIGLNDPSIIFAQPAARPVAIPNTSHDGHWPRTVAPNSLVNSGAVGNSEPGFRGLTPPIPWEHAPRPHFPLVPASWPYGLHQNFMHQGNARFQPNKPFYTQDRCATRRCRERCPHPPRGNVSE

With pre-let-7 (in vitro transcribed), the equilibrium dissociation constant (Kd) (as a rule, the equilibrium constant for the complex coming apart) in data set [1] was 2 µM.

As for “recombinant MBP-PUP2 (C. elegans PUP2 fused to maltose binding protein)”, in data set [2], the “polyuridylation of pre-let-7 in vitro (uridylation assay, incorporation of alpha-32P-UTP)” value is “PUP2 was inactive on its own and required the addition of LIN-28 to polyuridylate pre-let-7”; the uridylation assay entry is listed as “PUP2 is a LIN-28 dependent pre-let-7 polyuridylase in vitro”.

For “uridine 5′-diphosphoglucuronic acid (UDP-GlcA) [compound 1]”, the “uridylation activity of FLAG immunoprecipitates of ZCCHC11” value on ZCCHC11 (FLAG immunoprecipitates, 5 mM of test compound, 20 min at 37° C., FIG. 15b) is on record as “reduces the uridylation activity”. Further, the “uridylation activity of whole cell extracts (endogenous and HA-FLAG-ZCCHC11 uridylyl activities)” value at ZCCHC11 (whole cell extracts of HEK293T cells transfected with pHA-FLAG-ZCCHC11, FIG. 15a) is reported as “reduces the uridylation activity”.
